Test results: patent US20160362487A1 (Regeneron, published 2016)
Positions count from the first letter of the chain named. Names may count otherwise.

T1: cynomolgus monkey IL-33 expressed with a C-terminal hexahistidine tag (cynomolgus monkey)
T1 construct: also called MfIL-33-6His; Mf-IL-33-6His
T1 chain: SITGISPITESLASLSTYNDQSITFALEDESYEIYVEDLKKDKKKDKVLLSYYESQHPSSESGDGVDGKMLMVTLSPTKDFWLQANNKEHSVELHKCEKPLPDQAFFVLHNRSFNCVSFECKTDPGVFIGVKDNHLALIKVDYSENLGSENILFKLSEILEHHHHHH

T2: human IL-33 (R&D Systems, #3625-IL-010/CF) (human, UniProt O95760 112-270)
T2 construct: Commercial recombinant protein; also called hIL-33; interleukin-33
T2 sequence (looked up): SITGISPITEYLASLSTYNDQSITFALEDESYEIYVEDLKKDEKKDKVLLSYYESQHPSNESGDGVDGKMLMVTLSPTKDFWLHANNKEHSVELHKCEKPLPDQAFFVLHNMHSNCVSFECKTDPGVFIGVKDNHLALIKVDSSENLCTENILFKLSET

B1: H4H9670P (antibody, V domains shown)
VH: EVQLVESGGGLVQPGGSLRLSCAASGFTLSSYAMSWVRQAPGKGLEWVSAISGSGGSTYYADSVKGRFTISRDNSKNSLYLQLNSLRAEDTAVYYCAKTLYTTSWYGGFQHWGQGTLVTVSS
VL: DIQMTQSPSSVSASIGDRVTITCRASQGISSWLAWYQQKPGKVPKLLIYAASSLQSGFPSRFSGSGSGTDFTLTISSLQPEDFATYYCQQTHSFPWTVGQGTKVEIK
notes: Human IgG4 Fc (H4H)
B2: H4H9660P (antibody, human IgG4, V domains shown)
VH: EVQLVESGGGLVQPGGSLRLSCAASGITLSSYGMSWVRQAPGKGLEWVASIFGSGGGPYYADSVKGRFTMSRDNSKNTLYLQMNSLRAEDTAVYYCAKDRYSGSYYGGFDYWGRGTLVTVSS
VL: DIQMTQSPSSVSASVGDRVTITCRASQGITSWLAWYQQKPGKAPTLLIYAASSLQTGVPSRFSGSGSGTDFTLTISSLQPEHFATYYCQQANSFPPTFGGGTKVEIK
notes: Human IgG4 Fc (H4H)
B3: H4H9664P (antibody, human IgG4, V domains shown)
VH: QVQLVESGGGVVQPGRSLRLSCAASGFTFSSYGLHWVRQSPGKGLEWVALISYDGSNKYYADSVKGRFTISRDNSKNTLYLQMNSLRPEDTAGYFCAKSLYTTSWYGGFDYWGQGTLVTVSS
VL: B2 VL with T30R, T45N, T56S, H82D, G100P, E105D
notes: Human IgG4 Fc (H4H)
B4: H4H9663P (antibody, human IgG4, V domains shown)
VH: QVQLVQSGAEVKKPGASVKVSCKASGYTFTGHYMYWMRQAPGQGLEWMGWINPNSGGTNYAQKFQDRVTMTRDTSISTAYMELSRLRSDDTAVYYCARGRYGSSWYGGFEYWGQGTLVTVSS
VL: B2 VL with T45N, S52A, T56S, H82D, A84T, N92Y, F94L, P96L
notes: Human IgG4 Fc (H4H)
B5: H4H9665P (antibody, human IgG4, V domains shown)
VH: EVQLVESGGGLVQPGGSLRLSCAASGFTFSNYAMTWVRQAPGKGLEWVSTISGSGDNTYYADSVQGRFTISRGHSKNTLYLQMNSLRAEDTAVYYCAKPTYSRSWYGAFDFWGQGTMVTVSS
VL: B2 VL with T30S, T45Q, S53R, T56S, S63W, H82D, S93N, P96F, G100P, E105D
notes: Human IgG4 Fc (H4H)
B6: H4H9667P (antibody, human IgG4, V domains shown)
VH: EVQLVESGGGLVQPGGSLRLSCAASGFTFSTYSMHWVRQAPGKGLEYVSTINNNGDTTYYADSVKGRFTISRDNSKNTLYLQLGSLRPEDMAVYYCARQTYTSSWYGGFDSWGQGTLVTVSS
VL: B2 VL with T45K, S53N, T56S, S76T, H82D, F94L, P96F, G100P, E105D
notes: Human IgG4 Fc (H4H)
B7: H4H9666P (antibody, human IgG4, V domains shown)
VH: QVQLVQSGAEVKKPGASVKVSCKASGYTFTSYGISWVRQAPGQGLEWMGWIRAYNGYTNYAQKFQGRVTMTTDTSTNTAYMELRTLNSDDTAVYYCARDRYSGSFHGNFDYWGQGTLVTVSS
VL: B2 VL with T30F, T45K, L46V, S53N, Q55E, T56S, H82D, F94L, P96L
notes: Human IgG4 Fc (H4H)
B8: H4H9662P (antibody, V domains shown)
VH: EVQLVESGGGLVQPGGSLRLSCAASGFTFSSYALTWVRQAPGKGLEWVSFISGSGGRPFYADSVKGRFTISRDNSKNMLYLQMNSLRAEDTAIYYCAKSLYTTSWYGGFDSWGQGTLVTVSS
VL: B2 VL with I29V, T30V, T45K, T56S, H82D, A91S, P96F, F98L, G100P, E105D
notes: Human IgG4 Fc (H4H)

Molecular target: T1, cynomolgus monkey IL-33 expressed with …
Assay: BLI; captured MfIL-33-6His, mAb-1 step with Buffer
Procedure: (§1) Binding competition between a panel of different anti-IL-33 monoclonal antibodies was determined using a real time, label-free bio-layer interferometry assay on an Octet® HTX biosensor (ForteBio, A Division of Pall Life Sciences). The experiment was performed at 25° C. using a buffer of 0.01M HEPES pH7.4, 0.15M NaCl, 3 mM EDTA, 0.05% v/v Surfactant Tween-20, and 0.1 mg/ml BSA (HBS-ET kinetics buffer) with the plate shaking at a speed of 1000 rpm. […] The antigen-captured biosensors were then saturated with a first anti-IL-33 monoclonal antibody (subsequently referred to as mAb-1) by immersion into wells containing 50 μg/mL solution of mAb-1 for 5 minutes. The biosensors were then dipped into wells containing a 50 μg/mL solution of a second anti-IL-33 monoclonal antibody (subsequently referred to as mAb-2) for 4 minutes. The biosensors were washed in HBS-ET kinetics buffer in between every step of the experiment. The real-time binding response was monitored during the experiment, and the maximum binding response for each binding step was recorded. The response of mAb-2 binding to MfIL-33-6His pre-complexed with mAb-1 was measured, and competitive/non-competitive behavior of different anti-IL-33 monoclonal antibodies with respect to each other was determined.

mAb-2 Binding to the Pre-complex of mAb-1 & MfIL-33-6xHis [nm]	Binder
0.3	B1
0.3	B2
0.31	B3
0.31	B4
0.33	B5
0.3	B6
0.32	B7
0.26	B8

What follows are binders tested against T3, pre-formed complex of hIL-33 and captured hST2-MMH (human, UniProt O95760 112-270) (assay: SPR 25C, 100 nM mAb over hIL-33/hST2-MMH complex).
T3 construct: Ligand-receptor complex on the sensor: hST2-MMH captured by anti-myc mAb and saturated with 100 nM hIL-33; also called hIL-33 pre-complexed with hST2-MMH
Procedure: The ability of anti-IL-33 antibodies to bind to a pre-formed complex of IL-33 with ST2 was tested using Biacore T-200 instrument equipped with a real-time surface plasmon resonance biosensor. The experiment was performed at 25° C. with a running buffer composed of 0.01M HEPES pH 7.4, 0.15M NaCl, 3 mM EDTA, and 0.05% v/v Surfactant Tween-20 (HBS-ET). […] The captured hST2-MMH surface was then saturated by injecting 100 nM of human IL-33 (hIL-33; R&D Systems, #3625-IL-010/CF) for 3 minutes followed by a 3 minute injection of a 100 nM solution of the anti-IL-33 monoclonal antibody. The real-time binding response was monitored during the entire course of the experiment, and the observed binding response at 3 minutes after injection of anti-IL-33 antibody to the pre-formed complex of hIL-33 and captured hST2-MMH was recorded and tabulated and shown in Table 7. No non-specific binding of anti-IL-33 monoclonal antibody to the anti-myc tag capture surface was observed.

Antibody Binding Response (RU)	Binder
-1	B1
-1	B2
-1	B3
-1	B4
0	B5
-1	B6
-1	B7
0	B8

Molecular target: T1, cynomolgus monkey IL-33 expressed with …
Assay: SPR 37C pH7.4, mAb captured
Procedure: (§2) Equilibrium dissociation constants (KD values) for IL-33 binding to purified anti-IL-33 monoclonal antibodies were determined using a real-time surface plasmon resonance biosensor using a Biacore 4000 instrument. The Biacore sensor surface was first derivatized by amine coupling with either a polyclonal rabbit anti-mouse antibody (GE, # BR-1008-38) or with a monoclonal mouse anti-human Fc antibody (GE, # BR-1008-39) to capture anti-IL-33 monoclonal antibodies expressed with mouse or with human IgG4 constant regions, respectively. All Biacore binding studies were performed in 0.01M ADA pH 7.4, 0.15M NaCl, 3 mM EDTA, and 0.05% v/v Surfactant Tween-20 (ABS-ET running buffer). […] Association of either hIL-33 or MfIL-33-6His to the captured monoclonal antibody was monitored for 4 minutes and their dissociation in ABS-ET running buffer was monitored for 10 minutes. The effect of reduced pH on the binding of each anti-IL-33 antibody to either hIL-33 or MfIL-33-6His was studied using an in-line pH chase assay format in 0.01M ADA pH 6.0, 0.15M NaCl, 3 mM EDTA, and 0.05% v/v Surfactant Tween-20 (ABS-ET pH6 buffer). To achieve this, association of either hIL-33 or MfIL-33-6His to the captured monoclonal antibody was monitored for 4 minutes in ABS-ET running buffer. Following a 30 second dissociation of either hIL-33 or MfIL-33-6His in ABS-ET running buffer, ABS-ET pH6 buffer was injected for 3 minutes, and the analyte dissociation under the low-pH conditions was measured. All the binding kinetic experiments were performed at both 25° C. and 37° C. Kinetic association (kₐ) and dissociation (kd) constants were determined by fitting the real-time sensorgrams to a 1:1 binding model using Scrubber 2.0c curve fitting software. Binding dissociation equilibrium constants (KD) and dissociative half-lives (t½) were calculated from the kinetic rate constants as: […]

Kd [nM]	koff [s⁻¹]	kon [M⁻¹ s⁻¹]	t½ [min]	Binder
6.84	0.00503	735000	2.3	B1
6.53	0.00444	680000	2.6	B2
16.2	0.00584	361000	2	B3
2.22	0.00361	1.62e+06	3.2	B4
1.91	0.0021	1.1e+06	5	B5
4.66	0.00317	681000	4	B6
32.7	0.0141	432000	0.8	B7
2.24	0.00158	707000	7	B8

What follows are binders tested against T2, human IL-33 (R&D Systems, …) (assay: SPR 37C pH7.4, mAb captured).
Procedure: as §2

Kd [nM]	koff [s⁻¹]	kon [M⁻¹ s⁻¹]	t½ [min]	Binder
0.676	0.000783	1.16e+06	15	B1
0.596	0.000479	803000	24	B2
1.39	0.000721	519000	16	B3
0.677	0.00124	1.83e+06	9	B4
1.19	0.00144	1.21e+06	8	B5
0.618	0.000603	976000	19	B6
0.681	0.00077	1.13e+06	15	B7
0.443	0.00062	1.4e+06	19	B8

Molecular target: T1, cynomolgus monkey IL-33 expressed with …
Assay: cell-based or functional assay

IC50, inhibition of 5 pM MfIL-33-6His activation of HEK293/hST2/NFkB-luciferase cells [M]	Binder
1.7e-08	B1
1.9e-08	B2
2.6e-08	B3
2.7e-09	B4
6.6e-10	B5
1.2e-08	B6
7.8e-08	B7
1.5e-09	B8

Molecular target: T1, cynomolgus monkey IL-33 expressed with …
Assay: BLI; mAb-1 on captured MfIL-33-6His
Procedure: as §1

mAb-1 Binding (nm)	Binder
0.56	B1
0.58	B2
0.61	B3
0.54	B4
0.63	B5
0.5	B6
0.57	B7
0.56	B8
